Measurements: doi:10.1101/710897

Biological target: UapA K73A/R133A/R421A/T401P, purified, detergent-solubilized (Aspergillus nidulans) (UniProt Q07307)
Test: native MS

## UapA K73A/R133A/R421A/T401P, purified, detergent-solubilized (from UniProt Q07307 1-574) (natural protein)
  stoichiometry N: 2
